Experimental data reported in patent US20260248972A1, “DUAL RECEPTOR TARGETING RADIOLIGANDS AND USES THEREOF RELATED APPLICATIONS” (priority 2022, published 2026).

Tests used:
[1] = target: T1, CCK2R (Homo sapiens, UniProt P32239); assay: Competitive binding (FACS) on CCK2R-transfected HEK 293T cells with Cy5-labeled Z360; conditions: HEK 293T transfected, Cy5-labeled Z360 competitive ligand (Table 3)
T1 construct: expressed in transfected cells; host or cells: HEK 293T cells
T1 sequence (P32239 1-447): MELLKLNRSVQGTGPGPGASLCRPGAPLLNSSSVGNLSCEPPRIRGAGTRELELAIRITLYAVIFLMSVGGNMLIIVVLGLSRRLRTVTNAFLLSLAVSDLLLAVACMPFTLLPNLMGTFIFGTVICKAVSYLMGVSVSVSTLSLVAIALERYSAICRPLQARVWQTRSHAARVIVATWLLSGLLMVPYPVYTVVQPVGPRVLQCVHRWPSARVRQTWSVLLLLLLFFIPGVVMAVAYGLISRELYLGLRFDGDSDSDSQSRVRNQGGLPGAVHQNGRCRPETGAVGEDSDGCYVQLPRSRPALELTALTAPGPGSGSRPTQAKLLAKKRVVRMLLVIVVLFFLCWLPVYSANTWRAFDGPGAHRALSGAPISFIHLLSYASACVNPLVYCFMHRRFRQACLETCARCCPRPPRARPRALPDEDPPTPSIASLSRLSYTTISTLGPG
Description: Binding Affinity Tested by Using Cy5-Labled Competitive Ligands.
HEK 293T cells were transfected with SSTR2 or CCK2R-expressing plasmid by Lipofectamine 2000 reagent. 24 hours after transfection, cells were harvested and suspended with assay buffer (1% OVA in DMEM). […] The testing compound was further supplemented into the wells at different concentrations. After incubation for 1 hour at dark, cells were washed and suspended in FACS buffer (1% OVA in DPBS). The fluorescent signal was detected by FACS machine and the binding affinity of the testing compound was evaluated by calculation of IC50 for competitive binding of reference compound.

[2] = target: T1, CCK2R; assay: Competitive binding (FACS) on CCK2R-transfected HEK 293T cells with Cy5-labeled F11N derivative; conditions: HEK 293T transfected, Cy5-labeled F11N derivative competitive ligand (Table 4); read-out: CCK2R IC50
[3] = target: T2, CCK2R (Rattus norvegicus, UniProt P30553); assay: Competitive cell-binding assay on AR42J cells with 125I-C3 as competitive ligand; conditions: based on mean IC50, C-2 = 1.00
T2 construct: host or cells: AR42J cells
T2 sequence (P30553 1-452): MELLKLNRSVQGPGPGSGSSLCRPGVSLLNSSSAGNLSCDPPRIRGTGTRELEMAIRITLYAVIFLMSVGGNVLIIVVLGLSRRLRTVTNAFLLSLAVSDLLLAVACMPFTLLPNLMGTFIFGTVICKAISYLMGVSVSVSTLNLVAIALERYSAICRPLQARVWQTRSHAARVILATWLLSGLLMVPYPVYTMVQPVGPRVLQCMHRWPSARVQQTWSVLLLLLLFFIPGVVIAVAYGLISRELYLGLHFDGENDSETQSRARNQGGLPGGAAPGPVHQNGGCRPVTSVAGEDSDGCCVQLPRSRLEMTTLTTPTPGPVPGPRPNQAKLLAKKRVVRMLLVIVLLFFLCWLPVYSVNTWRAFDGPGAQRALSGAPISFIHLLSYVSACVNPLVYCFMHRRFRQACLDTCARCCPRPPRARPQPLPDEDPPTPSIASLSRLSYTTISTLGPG
In short: (§1)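 Displacement of 125I-C1 or 125I-C3 tracer (0.02 μCi/well) by 0-10000 nM compound measured in triplicate on suspended AR42J cells in BSA-containing RPMI-1640, 37° C. for 1 h. After filtration washes, filter-bound counts gave IC50 via nonlinear regression fit.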

[4] = target: T3, SSTR2 (Rattus norvegicus, UniProt P30680); assay: Competitive cell-binding assay on AR42J cells with 125I-C1 as competitive ligand; conditions: based on mean IC50, C-1 = 1.00
T3 construct: host or cells: AR42J cells
In short: as §1

[5] = in vivo; conditions: BALB/c nude, mouse, in vivo, iv, total radioactivity
In short: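 Tissue uptake given as % ID and % ID/g from γ counting of organs taken 4, 24 and 72 h after injection into BALB/c nude mice carrying subcutaneous AR42J xenografts (0.05-0.50 g). Tracers were ^177Lu-labelled at 95° C for 15 min in pH 4.5 NaOAc buffer and used neat or diluted in PBS containing 3 mg/mL ascorbate.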

T3 sequence (P30680 whole entry): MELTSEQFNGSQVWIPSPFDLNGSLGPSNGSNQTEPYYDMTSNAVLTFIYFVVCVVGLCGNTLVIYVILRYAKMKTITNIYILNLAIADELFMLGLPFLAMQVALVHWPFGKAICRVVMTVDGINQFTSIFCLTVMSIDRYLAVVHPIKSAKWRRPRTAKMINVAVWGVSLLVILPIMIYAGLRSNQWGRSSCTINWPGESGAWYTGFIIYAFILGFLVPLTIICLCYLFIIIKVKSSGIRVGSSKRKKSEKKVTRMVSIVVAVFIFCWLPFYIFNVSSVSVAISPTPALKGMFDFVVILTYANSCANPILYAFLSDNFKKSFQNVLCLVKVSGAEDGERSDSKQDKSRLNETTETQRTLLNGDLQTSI

IC50 [1] [nM]	IC50 [2] [nM]	Relative Binding Affinity CCK2R [3]	Relative Binding Affinity SSTR2 [4]	Structure (SMILES)	tissue to tissue ratio at 24 h ([5]; T/K Tumor/Kidney ratio)	tissue to tissue ratio at 24 h ([5]; T/L Tumor/Liver ratio)	tissue to tissue ratio at 24 h ([5]; T/P Tumor/Pancreas ratio)	tissue to tissue ratio at 24 h ([5]; T/Sp Tumor/Spleen ratio)	tissue to tissue ratio at 24 h ([5]; T/St Tumor/Stomach ratio)	tissue uptake at 24 h ([5]; uptake Kidney) [%ID/g]	tissue uptake at 24 h ([5]; uptake Liver) [%ID/g]	tissue uptake at 24 h ([5]; uptake Pancreas) [%ID/g]	tissue uptake at 24 h ([5]; uptake Spleen) [%ID/g]	tissue uptake at 24 h ([5]; uptake Stomach) [%ID/g]	tissue uptake at 24 h ([5]; uptake Tumor) [%ID/g]
7.13	–	–	–	CC(O)[C@H](NC(=O)[C@@H]1CSSC[C@H](NC(=O)[C@@H](Cc2ccccc2)NC(=O)COCCOCCNC(=O)[C@H](CCCCNC(=O)CCC(NC(=O)CNC(=O)c2cccc(NC(=O)N[C@@H]3CN(C4CCCCC4)c4ccccc4N(CC(=O)C(C)(C)C)C3=O)c2)C(=O)O)NC(=O)COCCOCCNC(=O)COCCOCCNC(=O)CC[C@H](NC(=O)CN2CCN(CC(=O)O)CCN(CC(=O)O)CCN(CC(=O)O)CC2)C(=O)O)C(=O)N[C@@H](Cc2ccc(O)cc2)C(=O)N[C@H](Cc2c[nH]c3ccccc23)C(=O)N[C@@H](CCCCN)C(=O)N[C@@H]([C@@H](C)O)C(=O)N1)C(=O)O (stereo in doubt) [Compound I-21, DOTA-gE-OEG-OEG-K(-gE-G-Z360)-OEG-f[CYwKTC]T-OH]	–	–	–	–	–	–	–	–	–	–	–
1.36	–	–	–	C[C@@H](O)[C@H](NC(=O)[C@@H]1CSSC[C@H](NC(=O)[C@@H](Cc2ccccc2)NC(=O)[C@H](CCCCNC(=O)[C@H](CCC(=O)O)NC(=O)c2cccc(NC(=O)N[C@@H]3CN(C4CCCCC4)c4ccccc4N(CC(=O)C(C)(C)C)C3=O)c2)NC(=O)CN2CCN(CC(=O)O)CCN(CC(=O)O)CCN(CC(=O)O)CC2)C(=O)N[C@@H](Cc2ccc(O)cc2)C(=O)N[C@H](Cc2c[nH]c3ccccc23)C(=O)N[C@@H](CCCCN)C(=O)N[C@@H]([C@@H](C)O)C(=O)N1)C(=O)O [Compound I-25, DOTA-K(-E-Z360)-f[CYwKTC]T-OH]	–	–	–	–	–	–	–	–	–	–	–
–	56.7	–	–	C[C@@H](O)[C@H](NC(=O)[C@@H]1CSSC[C@H](NC(=O)[C@@H](Cc2ccccc2)NC(=O)COCCOCCNC(=O)COCCOCCNC(=O)CC[C@H](NC(=O)[C@H](CCCCNC(=O)c2cccc(NC(=O)CC3CN(C4CCCCC4)c4ccccc4N(CC(=O)C(C)(C)C)C3=O)c2)NC(=O)CN2CCN(CC(=O)O)CCN(CC(=O)O)CCN(CC(=O)O)CC2)C(=O)O)C(=O)N[C@@H](Cc2ccc(O)cc2)C(=O)N[C@H](Cc2c[nH]c3ccccc23)C(=O)N[C@@H](CCCCN)C(=O)N[C@@H]([C@@H](C)O)C(=O)N1)C(=O)O (some centres unmarked) [Compound I-74, DOTA-K(Z360)-gGlu-OEG-OEG-f]CYwKTC]T-OH]	–	–	–	–	–	–	–	–	–	–	–
–	–	270	0.46	C[C@@H](O)[C@H](NC(=O)[C@@H]1CSSC[C@H](NC(=O)[C@@H](Cc2ccccc2)NC(=O)[C@H](CCCCNC(=O)CC[C@H](NC(=O)CNC(=O)c2cccc(NC(=O)N[C@@H]3CN(C4CCCCC4)c4ccccc4N(CC(=O)C(C)(C)C)C3=O)c2)C(=O)O)NC(=O)COCCOCCNC(=O)CCC(C(=O)O)N2CCN(CC(=O)O)CCN(CC(=O)O)CCN(CC(=O)O)CC2)C(=O)N[C@@H](Cc2ccc(O)cc2)C(=O)N[C@H](Cc2c[nH]c3ccccc23)C(=O)N[C@@H](CCCCN)C(=O)N[C@@H]([C@@H](C)O)C(=O)N1)C(=O)O (some centres unmarked) [Compound I-19, DOTAGA- OEG- K(-gE- G- Z360)- f[CYwKTC]T- OH]	0.6	35	15	46	4.3	51.6	0.96	2.07	0.68	7.24	31.3
–	5.53	–	–	C[C@@H](O)[C@H](NC(=O)[C@@H]1CSSC[C@H](NC(=O)[C@@H](Cc2ccccc2)NC(=O)CCCCCNC(=O)CCCCCNC(=O)[C@H](CCCCNC(=O)[C@H](CCC(=O)O)NC(=O)c2cccc(NC(=O)N[C@@H]3CN(C4CCCCC4)c4ccccc4N(CC(=O)C(C)(C)C)C3=O)c2)NC(=O)CCC(C(=O)O)N2CCN(CC(=O)O)CCN(CC(=O)O)CCN(CC(=O)O)CC2)C(=O)N[C@@H](Cc2ccc(O)cc2)C(=O)N[C@H](Cc2c[nH]c3ccccc23)C(=O)N[C@@H](CCCCN)C(=O)N[C@@H]([C@@H](C)O)C(=O)N1)C(=O)O (some centres unmarked) [Compound I-72, DOTAGA- K(-Glu- Z360)- Ahx- Ahx- f[CYwKTC]T- OH]	–	–	–	–	–	–	–	–	–	–	–
–	–	3.80	3.50	C[C@@H](O)[C@H](NC(=O)[C@@H]1CSSC[C@H](NC(=O)[C@@H](Cc2ccccc2)NC(=O)COCCOCCNC(=O)C(CCCCNC(=O)CC[C@H](NC(=O)CNC(=O)c2cccc(NC(=O)N[C@@H]3CN(C4CCCCC4)c4ccccc4N(CC(=O)C(C)(C)C)C3=O)c2)C(=O)O)NC(=O)COCCOCCNC(=O)CC[C@H](NC(=O)CC[C@H](NC(=O)CN2CCN(CC(=O)O)CCN(CC(=O)O)CCN(CC(=O)O)CC2)C(=O)O)C(=O)O)C(=O)N[C@@H](Cc2ccc(O)cc2)C(=O)N[C@H](Cc2c[nH]c3ccccc23)C(=O)N[C@@H](CCCCN)C(=O)N[C@@H]([C@@H](C)O)C(=O)N1)C(=O)O (stereo in doubt) [Compound I-14, DOTA-gE-gE-OEG-K(-gE-G-Z360)-OEG-f[CYwKTC]T-OH]	0.2	6.7	4.4	27	6.6	68.6	2.24	3.37	0.56	2.25	14.9
–	–	5.3	0.50	C[C@@H](O)[C@H](NC(=O)[C@@H]1CSSC[C@H](NC(=O)[C@@H](Cc2ccccc2)NC(=O)COCCOCCNC(=O)[C@H](CCCCNC(=O)[C@H](CCC(=O)O)NC(=O)c2cccc(NC(=O)N[C@@H]3CN(C4CCCCC4)c4ccccc4N(CC(=O)C(C)(C)C)C3=O)c2)NC(=O)CN2CCN(CC(=O)O)CCN(CC(=O)O)CCN(CC(=O)O)CC2)C(=O)N[C@@H](Cc2ccc(O)cc2)C(=O)N[C@H](Cc2c[nH]c3ccccc23)C(=O)N[C@@H](CCCCN)C(=O)N[C@@H]([C@@H](C)O)C(=O)N1)C(N)=O [Compound I-3, DOTA-K(-E-Z360)-OEG-f[CYwKTC]T-NH2]	0.8	12	13	45	4.2	16.5	1.16	1.05	0.3	3.24	13.6

Structure (SMILES)	IC50 [1] [nM]	IC50 [2] [nM]	Relative Binding Affinity CCK2R [3]	Relative Binding Affinity SSTR2 [4]	tissue to tissue ratio at 24 h ([5]; T/K Tumor/Kidney ratio)	tissue to tissue ratio at 24 h ([5]; T/L Tumor/Liver ratio)	tissue to tissue ratio at 24 h ([5]; T/P Tumor/Pancreas ratio)	tissue to tissue ratio at 24 h ([5]; T/Sp Tumor/Spleen ratio)	tissue to tissue ratio at 24 h ([5]; T/St Tumor/Stomach ratio)	tissue uptake at 24 h ([5]; uptake Kidney) [%ID/g]	tissue uptake at 24 h ([5]; uptake Liver) [%ID/g]	tissue uptake at 24 h ([5]; uptake Pancreas) [%ID/g]	tissue uptake at 24 h ([5]; uptake Spleen) [%ID/g]	tissue uptake at 24 h ([5]; uptake Stomach) [%ID/g]	tissue uptake at 24 h ([5]; uptake Tumor) [%ID/g]
CCCC[C@H](NC(=O)[C@H](Cc1c[nH]c2ccccc12)NC(=O)CNC(=O)[C@H](Cc1ccc(O)cc1)NC(=O)[C@H](C)NC(=O)[C@@H](CCC(=O)O)NC(=O)[C@@H](CCC(=O)O)NC(=O)[C@@H](CCC(=O)O)NC(=O)[C@@H](CCC(=O)O)NC(=O)[C@@H](CCC(=O)O)NC(=O)[C@@H](CCC(=O)O)NC(=O)CN1CCN(CC(=O)O)CCN(CC(=O)O)CCN(CC(=O)O)CC1)C(=O)N[C@@H](CC(=O)O)C(=O)N[C@@H](Cc1ccccc1)C(N)=O [Compound C5, DOTA-e-e-e-e-e-e-Ala-Tyr-Gly-Trp-Nle-Asp-Phe-NH2, reference compound]	–	25.7	–	–	–	–	–	–	–	–	–	–	–	–	–
